Test system: MS2 coat protein
Test: apparent KD of MS2 coat protein; designed switch direction (-1 OFF switch, 1 ON switch): -1; higher = weaker reporter binding
Method in brief: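 Designed RNA switches sharing common flanks were transcribed on Illumina chips by stalled E. coli RNA polymerase. They were titrated with SNAP-549-labelled MS2 coat protein, from 0.7 or 1.5 nM doubling to 3 µM, in Tris-HCl pH 7.5 buffer with KCl, MgCl2, BSA, DTT, tRNA and Tween-20. Titrations ran without input, with 200 uM small-molecule ligand, or with an oligonucleotide input. The apparent KD of each design is the median over its clusters, after curve-fitting of normalised cluster fluorescence.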

[1] = Eterna round: R95, input ligand: FMN 200 uM
[2] = Eterna round: R95, input ligand: microRNA oligo, concentration not stated
[3] = Eterna round: R95, input ligand: none
[4] = input ligand: microRNA oligo, concentration not stated

| Sequence | apparent KD of MS2 coat protein [1] [nM] | apparent KD of MS2 coat protein [2] [nM] | apparent KD of MS2 coat protein [3] [nM] | apparent KD of MS2 coat protein (input ligand: FMN 200 uM) [nM] | apparent KD of MS2 coat protein (input ligand: none) [nM] | apparent KD of MS2 coat protein [4] [nM] |
| --- | --- | --- | --- | --- | --- | --- |
| AGUAGGUCUACCUUGGUGGAUCUGCAUUUUUGCAGGUGUACAUGAGGAUCACCCAUGUCCUCAUUUGCUCGUCUUAU [JL turnoff v2 99.30] (puzzle: Sensor v3, turn-off variant 2) | 488 | 629 | 473 | – | – | – |
| AGUAGUAGUGUCCGAUCCUACAUGAGGAUCACCCAUGUAGCUAGACGUGCACGCGAUGCUCGUCAGACUACCAGAUG [salish99_TOv1_r3_046] (puzzle: Sensor v3, turn-off variant 1) | 83.7 | 88.7 | 129 | – | – | – |
| AGUAUGCGGCAGGAUAUCCAUCCGCGGUGAGGUGGAGAAGGGCUGACAUGAGGAUCACCCAUGUGCGUCCUGUA [salish99_ex6_r4_027] (Eterna round: R97, puzzle: Exclusion 6) | – | – | – | 29.4 | 21 | – |
| AGUAUGUCAGGAUAUCUCGGGUAGUCGACAACGGCUACCGAAGAGAAGGGACAUGAGGAUCACCCAUGUACCAU [EX4 B.26] (Eterna round: R97, puzzle: Exclusion 4) | – | – | – | 28.3 | 24.9 | – |
| AGUCAGGCGGUAGGAUAUCCAAAUCGAGUGACCCUCUCAUAACAUGAGGAUCACCCAUGUCGGUGGGAGAAGGGCCGUAAGGCG [Mat - Exclusion NG 2 - Mod of JL - D63] (Eterna round: R96, puzzle: Exclusion NG 2) | – | – | – | 48.2 | 29.5 | 25.8 |
| AGUGCGUCAGGAUAUUCUAUUAAUUACAUGAGGAUCACCCAUGUGAAUGGACAAGGGUGUGAAGAAGGGACGUGCG [Omei Ex5 A17g] (Eterna round: R97, puzzle: Exclusion 5) | – | – | – | 360 | 872 | – |
| AGUGUGUGGCAGGAUAUGCAAUUAAUAGGUGAAGCAGAAGGGUCUACAUGAGGAUCACCCAUGUAUGCGGUUGA [Ex6 #23] (Eterna round: R97, puzzle: Exclusion 6) | – | – | – | 297 | 68.5 | – |
| AGUGUGUGGCAGGAUAUGCGAUUUGUAAGUGUUGCAGAAGGGUCUACAUGAGGAUCACCCAUGUGUGCGGUUGA [Ex6 #13] (Eterna round: R97, puzzle: Exclusion 6) | – | – | – | 658 | 516 | – |
| AGUGUGUGGCAGGAUAUGCUGUUGAUUGGUGGAGCAGAAGGGUCUACAUGAGGAUCACCCAUGUAAGCGGUUGA [Ex6 #30] (Eterna round: R97, puzzle: Exclusion 6) | – | – | – | 125 | 36.5 | – |
| AGUUAGAUAGGAUAUGCCCGAGAUAACAUGAGGAUCACCCAUGUGACCGAGUCUAUUCUAGCAGAAGGGUUUAUGA [Mod of ViennaUCT 20 - Jieux - Exclusion 5] (Eterna round: R97, puzzle: Exclusion 5) | – | – | – | 17.8 | 18.3 | – |
| AGUUAUGCAGGAUAUUGCGGGCCAGACAUGAGGAUCACCCAUGUGUGGGAGUCCUGCGCGCGAGAAGGGCAGACAA [EX5 B.22] (Eterna round: R97, puzzle: Exclusion 5) | – | – | – | 28.9 | 20.4 | – |
| AGUUCACAUGAGGAUCACCCAUGUGAGGAUAUGGUUUCGCUGGCCGUAGCCAGUGGAACCAGAAGGCGCGUGAU [Mat - Exclusion 1 - JL Mod - D15] (Eterna round: R97, puzzle: Exclusion 1) | – | – | – | 52.1 | 51 | – |
| AGUUGGCGAGGAUAUACAUGAGGAUCACCCAUGUAUGAGAUAAAAGUGAGGUAAAUAUGUAGAAGGCGCUGACA [JR_Ex3_Sub078] (Eterna round: R97, puzzle: Exclusion 3) | – | – | – | 897 | 107 | – |
| AGUUGGCGAGGAUAUACAUGAGGAUCACCCAUGUGAGAGAUACUAGUGAGGUCGAUGAGUAGAAGGCGCUGACA [Mat X3R4 m18] (Eterna round: R97, puzzle: Exclusion 3) | – | – | – | 186 | 142 | – |
| AGUUGGCGAGGAUAUACAUGAGGAUCACCCAUGUGAGAGAUACUAGUGAGGUCGAUUGGUAGAAGGCGCUGACG [Mat - Exclusion 3 - Mod of JL D79] (puzzle: Exclusion 3) | 222 | 104 | 151 | – | – | – |
| AGUUGGCGAGGAUAUACAUGAGGAUCACCCAUGUGGGAGAUACUAGUGAGGUCGAUUAGUAGAAGGCGCUGACA [Mat X3R4 m8] (Eterna round: R97, puzzle: Exclusion 3) | – | – | – | 566 | 209 | – |
| AGUUGUGUCAAGGAUAUGCAGUCUAACGACGGAGCAGAAGGUGACACUUGAGGAUCACCCAAGUGAACCAAAAU [Bisoreis] (Eterna round: R97, puzzle: Exclusion 6) | – | – | – | 393 | 57.5 | – |

| Sequence | apparent KD of MS2 coat protein [1] [nM] | apparent KD of MS2 coat protein [2] [nM] | apparent KD of MS2 coat protein [3] [nM] | apparent KD of MS2 coat protein (input ligand: FMN 200 uM) [nM] | apparent KD of MS2 coat protein (input ligand: none) [nM] | apparent KD of MS2 coat protein [4] [nM] |
| --- | --- | --- | --- | --- | --- | --- |
| AGUUGUUCAGGAUAUGAUGUAUGUUACAUGAGGAUCACCCAUGUAGGUCCUGGAUAUGUAUCAGAAGGGAAUAUCU [JR_Ex5_Sub059] (Eterna round: R97, puzzle: Exclusion 5) | – | – | – | 40.8 | 32 | – |
| AGUUGUUGUUUCCGUUCUUACAUGAGGAUCACCCAUGUUUCUUGUCGUGCUCGCGUUGCUCGUCUGACUACCUGUUG [salish99_TOv1_r3_067] (puzzle: Sensor v3, turn-off variant 1) | 52.5 | 40.3 | 68.1 | – | – | – |
| AGUUGUUGUUUCCGUUCUUACAUGAGGAUCACCCAUGUUUCUUGUCGUGCUCGCGUUGCUCGUCUGGCUGCCUGUUG [salish99_TOv1_r3_069] (Eterna round: R96, puzzle: Sensor v3, turn-off variant 1) | – | – | – | 47 | 46.4 | 28 |
| AGUUGUUGUUUCCGUUCUUACAUGAGGAUCACCCAUGUUUCUUGUCGUGCUCGCGUUGCUCGUCUGGCUGCCUGUUG [salish99_TOv1_r3_069] (puzzle: Sensor v3, turn-off variant 1) | 40.7 | 35.2 | 53.3 | – | – | – |
| AUAAAACAUGAGGAUCACCCAUGUGAGGAUAUACGACUCCAACCUAACAGCUUGGACCGUAGAAGGCACAAGGG [Exclusion 1 (MOD3.2 Esqu)] (Eterna round: R97, puzzle: Exclusion 1) | – | – | – | 137 | 159 | – |
| AUAAAAUAGGAGGAUAUCGUAUCGGAAACGAUACGAGAAGGUCUAACAUGAGGAUCACCCAUGUUCCUCAAUAA [Mat - Exclusion 6 - Eli Mod - D46] (puzzle: Exclusion 6) | 142 | 36.3 | 37.6 | – | – | – |
| AUAAACGCAGGAUAUACAUGAGGAUCACCCAUGUAAAUUUUAAAAUAAAUAAAUAGAUGUAGAAGGGCGAAAUA [Lollin - Gamma 1] (puzzle: Exclusion 3) | 37 | 28.2 | 33.5 | – | – | – |
| AUAAAGCAAGGAUAUACAUGAGGAUCACCCAUGUAUGAAAGUUGGCCGCGGUUUAGAUGUAGAAGGUGCAAGGG [EX3 B.8] (Eterna round: R97, puzzle: Exclusion 3) | – | – | – | 27.6 | 28.1 | – |
| AUAAGAAAGGCAGGAUAUUGUGCACCCUAGUGACAAGAAGGGCCAGGGUGUGCGCUCCACAUGAGGAUCACCCAUGUUAGAAAG [Berimate] (Eterna round: R96, puzzle: Exclusion NG 1) | – | – | – | 26.4 | 29.3 | 27 |
| AUAAGCUUUGAUAUCCUUAACAUGAGGAUCACCCAUGUUCGUCUUAUGAUGGUCUGAUCCCUGAGGAUCGGACCGUU [JL-sv1-2.06 Brourd Mod] (puzzle: Sensor v3, turn-off variant 1) | 34.4 | 88.4 | 33.1 | – | – | – |
| AUAAGGUCAGGAUAUGCUUGGCUGAUUCUGGUGUCCAAAUGACAUGAGGAUCACCCAUGUAGAAGGGACAUCAG [Usgeledi] (Eterna round: R97, puzzle: Exclusion 2) | – | – | – | 16.1 | 15.1 | – |
| AUAAUACAUGUAGGAUAUGCGUGGCGAAGCUAUGCAGAAGGACAUGAGGAUCACCCAUGUUCUAGCGUCUGCGUACAGAUGCUA [JL eng1 1.35 mod 1] (Eterna round: R96, puzzle: Exclusion NG 1) | – | – | – | 37.3 | 18.1 | 14 |
| AUAAUGCAAGCAUGGUCCCACAUGAGGAUCACCCAUGUGUUCGUCUUAUAGGCUGCUGUGGCUUUUGCCUCGUUGGC [LRO Sensor-off var1-10 loose mod of D91 from Mat747] (Eterna round: R97, puzzle: Sensor, turn-off variant 1) | – | – | – | 74.3 | 78.5 | – |
| AUAAUGUCAGGAUAUCAGACGUACAGCUUCGGCUGUACGUCUGAGAAGGGACAUGAGGAUCACCCAUGUGAUUA [E4/3-A1] (Eterna round: R97, puzzle: Exclusion 4) | – | – | – | 224 | 940 | – |
| AUAAUGUCAGGAUAUCAGUCGUACAGCCUCGGCUGUACGACUGAGAAGGGACAUGAGGAUCACCCAUGUGGUCA [E4/6-A2] (Eterna round: R97, puzzle: Exclusion 4) | – | – | – | 42.4 | 155 | – |
| AUAAUGUGAGGAUAUCAGUCGACUAGCCUCGGCUAGUCGACUGAGAAGGCACAUGAGGAUCACCCAUGUAGAUC [E4/17-A2] (Eterna round: R97, puzzle: Exclusion 4) | – | – | – | 75.8 | 825 | – |
| AUACCACGAGGAUAUCGUCUCUCCCACAUGAGGAUCACCCAUGUUAUCCAUGUUUCGUUUCGAGAAGGCGUGGGUU [JR_E5_Sub072] (puzzle: Exclusion 5) | – | 58.7 | – | – | – | – |
